Source: article doi:10.1101/2022.02.27.481963

Target: Fused MjGMPS (MjATPPase subunit fused to the C-terminus of MjGATase, no intervening linker) (Methanocaldococcus jannaschii)
Assay: SEC

Fused MjGMPS (MjATPPase subunit fused to the C-terminus of MjGATase, no intervening linker) (enzyme)
stoichiometry N: 2
